# Results from publication PMC13376213 (2026).
# Changes are numbered by the printed parent chain. Numbers in names are those of the source. * marks the point of attachment. FITC = O=C1OC2(c3ccc(O)cc3Oc3cc(O)ccc32)c2ccc(NC(=S)*)cc21
# T1: USP20 DUSP2 domain K833E/K835E (for FP) (human)
# T1 chain: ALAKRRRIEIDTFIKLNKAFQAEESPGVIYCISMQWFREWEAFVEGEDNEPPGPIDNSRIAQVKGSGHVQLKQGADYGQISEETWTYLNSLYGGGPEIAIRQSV
# T2: USP33 DUSP2 domain, tag cleaved (for FP) (human, UniProt Q8TEY7 1-942)
# T2 chain: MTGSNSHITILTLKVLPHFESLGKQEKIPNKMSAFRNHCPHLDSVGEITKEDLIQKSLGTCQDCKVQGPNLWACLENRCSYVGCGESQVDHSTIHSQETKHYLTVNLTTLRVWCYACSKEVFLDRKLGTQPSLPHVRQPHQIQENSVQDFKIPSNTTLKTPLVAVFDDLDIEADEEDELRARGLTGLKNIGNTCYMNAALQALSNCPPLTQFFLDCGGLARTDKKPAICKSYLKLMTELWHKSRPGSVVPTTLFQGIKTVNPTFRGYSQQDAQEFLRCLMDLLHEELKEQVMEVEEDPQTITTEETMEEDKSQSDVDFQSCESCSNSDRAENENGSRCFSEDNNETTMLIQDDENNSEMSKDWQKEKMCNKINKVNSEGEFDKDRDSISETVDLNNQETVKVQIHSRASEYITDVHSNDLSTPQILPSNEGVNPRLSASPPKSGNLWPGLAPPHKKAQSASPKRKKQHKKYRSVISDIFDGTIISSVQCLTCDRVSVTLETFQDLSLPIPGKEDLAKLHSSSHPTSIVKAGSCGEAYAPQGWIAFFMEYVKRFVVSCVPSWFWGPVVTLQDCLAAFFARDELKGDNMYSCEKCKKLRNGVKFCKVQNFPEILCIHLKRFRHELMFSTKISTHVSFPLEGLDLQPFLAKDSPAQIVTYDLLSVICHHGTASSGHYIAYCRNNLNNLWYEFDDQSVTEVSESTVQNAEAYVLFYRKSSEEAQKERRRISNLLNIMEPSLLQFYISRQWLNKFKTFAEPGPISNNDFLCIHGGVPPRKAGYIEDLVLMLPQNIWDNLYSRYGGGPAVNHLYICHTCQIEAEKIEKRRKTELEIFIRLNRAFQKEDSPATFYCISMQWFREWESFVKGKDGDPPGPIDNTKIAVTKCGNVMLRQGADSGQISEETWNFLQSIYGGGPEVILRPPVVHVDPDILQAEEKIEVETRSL
# T3: USP20 DUSP2 domain N805A (for FP) (human)
# T3 chain: T1 chain with N17A, E45K, E47K
# T4: USP22 zf-UBP (Homo sapiens, UniProt Q9UPT9)
# T4 chain: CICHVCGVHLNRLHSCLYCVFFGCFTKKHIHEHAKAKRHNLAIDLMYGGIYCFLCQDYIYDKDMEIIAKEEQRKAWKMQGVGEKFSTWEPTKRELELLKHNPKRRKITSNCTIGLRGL
# T5: USP33 zf-UBP domain, tag cleaved (for FP) (human, UniProt Q8TEY7 1-942)
# T5 chain: T2 chain
# Target: T1, USP20 DUSP2 domain K833E/K835E (for FP)
# Assay: FP
row,Kd,Binder
1,> 290 µM,{FITC}-SDDDLAWNIAPQGLQ-NH2 [FITC-GPR137B 348-362]

# Target: USP20 DUSP2 domain, tag cleaved (for FP) (human)
# Assay: FP
row,Kd,Binder
1,5 µM,{FITC}-SDDDLAWNIAPQGLQ-NH2 [FITC-GPR137B 348-362]
2,85 µM,Ac-PYIPMDDKFQLRSFDQLS-NH2 [HIF1A 564-581 D571K]
3,19 µM,Ac-PYIPMDKDFQLRSFDQLS-NH2 [HIF1A 564-581 D570K]
4,89 µM,Ac-PYIPMDDDFQARSFDQLS-NH2 [HIF1A 564-581 L574A]
5,22 µM,Ac-QLEEELFQLRQGPAG-NH2 [CCDC88B_(947-961) peptide]
6,45 µM,Ac-DVVDDFQLQHRHGPG-NH2 [MFSD2B_(395-409) peptide]
7,19 µM,Ac-PYIPMDDDFQLRSFDQLS-NH2 [HIF1A 564-581]
8,> 200 µM,Ac-PYIPMDGEDFQLSPICPE-NH2 [HIF2A peptide 531-548]
9,10 µM,Ac-SDDDLAWNIAPQGLQ-NH2 [GPR137B_(348-362) peptide]

# Target: T2, USP33 DUSP2 domain, tag cleaved (for FP)
# Assay: FP
row,Kd,Binder
1,40 µM,Ac-QLEEELFQLRQGPAG-NH2 [CCDC88B_(947-961) peptide]
2,0.8 µM,Ac-DVVDDFQLQHRHGPG-NH2 [MFSD2B_(395-409) peptide]
3,> 1000 µM,Ac-PYIPMDGEDFQLSPICPE-NH2 [HIF2A peptide 531-548]
4,> 200 µM,Ac-SDDDLAWNIAPQGLQ-NH2 [GPR137B_(348-362) peptide]

# Target: T3, USP20 DUSP2 domain N805A (for FP)
# Assay: FP
row,Kd,Binder
1,> 130 µM,{FITC}-SDDDLAWNIAPQGLQ-NH2 [FITC-GPR137B 348-362]

# Target: T4, USP22 zf-UBP
# Assay: fluorescence polarization (direct for FITC probes, competitive otherwise)
row,Kd,Binder
1,58.4 µM,LPSPEVMLGQSWNLWVE (FITC label on probe peptides (FITC- prefix)) [ATXN7]
2,19.4 µM,VPSLDDFAGQSWSSWVE (FITC label on probe peptides (FITC- prefix)) [ATXN7L2_18-34]

# Target: USP20 zf-UBP domain, tag cleaved (for FP) (human)
# Assay: FP
# Chain of USP20 zf-UBP domain, tag cleaved (for FP) (human) (chain, as listed by the source): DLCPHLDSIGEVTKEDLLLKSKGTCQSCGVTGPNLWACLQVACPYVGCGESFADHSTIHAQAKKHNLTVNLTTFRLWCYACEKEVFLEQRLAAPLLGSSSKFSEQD
row,Kd,Binder
1,> 500 µM,Ac-EKVKRRLDLDID-NH2 [CCP110_(582-593) peptide]
2,37 µM,Ac-LQPSSKASLESTSDL-NH2 [CEP192 2073-2087]
3,9 µM,Ac-TNSSGKMALNSPQPG-NH2 [IRAG1 302-316]

# Target: T5, USP33 zf-UBP domain, tag cleaved (for …)
# Assay: FP
row,Kd,Binder
1,41 µM,Ac-PFQPGRMALESQSPG-NH2 [USP19 874-888]
2,> 250 µM,Ac-EKVKRRLDLDID-NH2 [CCP110_(582-593) peptide]
3,14 µM,Ac-LQPSSKASLESTSDL-NH2 [CEP192 2073-2087]
4,8 µM,Ac-TNSSGKMALNSPQPG-NH2 [IRAG1 302-316]
